Test results reported in publication PMC7856178 (Archives of biochemistry and biophysics, 2020).
Like-named read-outs stand apart in the source and are kept apart here.

How the values were obtained:
Test in all cases: FRET or BRET
[1] = target: the molecule itself
[2] = target: the molecule itself; remark: listed apart in the source
[3] = target: the molecule itself; remark: listed apart in the source

B1: CYP2E1 labeled with BODIPY-618 maleimide (enzyme, human, UniProt P05181 1-493, looked up)
chain: MSSMWRQVHSSWNLPPGPFPLPIIGNLFQLELKNIPKSFTRLAQRFGPVFTLYVGSQRMVVMHGYKAVKEALLDYKDEFSGRGDLPAFHAHRDRGIIFNNGPTWKDIRRFSLTTLRNYGMGKQGNESRIQREAHFLLEALRKTQGQPFDPTFLIGCAPCNVIADILFRKHFDYNDEKFLRLMYLFNENFHLLSTPWLQLYNNFPSFLHYLPGSHRKVIKNVAEVKEYVSERVKEHHQSLDPNCPRDLTDCLLVEMEKEKHSAERLYTMDGITVTVADLFFAGTETTSTTLRYGLLILMKYPEIEEKLHEEIDRVIGPSRIPAIKDRQEMPYMDAVVHEIQRFITLVPSNLPHEATRDTIFRGYLIPKGTVVVPTLDSVLYDNQEFPDPEKFKPEHFLNENGKFKYSDYFKPFSTGKRVCAGEGLARMELFLLLCAILQHFNLKPLVDPKDIDLSPIHIGFGCIPPRYKLCVIPRS
modifications: BODIPY-618 maleimide label, 2:1 label to protein ratio (labelled residues not stated)
For B1, the “(Lipid/CYP2E1)50%” value [1] was 604 molar ratio, the “(Lipid/CYP2E1)50%” value [2] was 176 molar ratio and the “(Lipid/CYP2E1)50%” value [3] was 14400 molar ratio.
